Legend:
PUM2 RNA-binding domain [1] = molecular target: T1, PUM2 RNA-binding domain (Homo sapiens, UniProt Q8TB72 706-1059); test: competition EMSA
PUM2 RNA-binding domain [2] = molecular target: T1, PUM2 RNA-binding domain; test: EMSA
PUM2 RNA-binding domain [3] = molecular target: T1, PUM2 RNA-binding domain; test: EMSA; remark: listed apart in the source

T1 sequence (Q8TB72 706-1059): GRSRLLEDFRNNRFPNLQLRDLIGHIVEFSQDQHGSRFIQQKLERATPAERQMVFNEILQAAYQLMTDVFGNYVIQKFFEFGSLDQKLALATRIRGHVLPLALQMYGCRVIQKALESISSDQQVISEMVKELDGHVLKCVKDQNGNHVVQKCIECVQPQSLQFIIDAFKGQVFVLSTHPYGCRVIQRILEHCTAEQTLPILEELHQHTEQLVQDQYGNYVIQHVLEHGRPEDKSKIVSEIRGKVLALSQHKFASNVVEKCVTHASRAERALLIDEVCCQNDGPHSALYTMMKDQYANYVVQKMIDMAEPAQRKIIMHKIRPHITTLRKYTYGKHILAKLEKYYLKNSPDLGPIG

Binder | binding result (PUM2 RNA-binding domain [1]) | also measured
UGUAUAUA (ssRNA) [8-mer consensus] | binds | –
UGUAGAUA (ssRNA) [8-mer 5G] | binds | –
UGUAUAGA (ssRNA) [8-mer 7G] | binds | –
CUUGUAUAUAG (ssRNA) | – | binding result (PUM2 RNA-binding domain [2]): binds
UCUCUUUGUAUAUAUCUCUU (ssRNA) [S1a RNA] | – | binding result (PUM2 RNA-binding domain [3]): binds
